In patent US20050187160A1:
“And” between values parts separate entries of the source, which are not always exact repeats. Equal entries are not always repeated.

Target: T1, rabbit GH receptor (full length, stably expressed on murine FDC-P1 cells, GH-R4 line) (rabbit) (UniProt P19941)
T1 sequence (looked up): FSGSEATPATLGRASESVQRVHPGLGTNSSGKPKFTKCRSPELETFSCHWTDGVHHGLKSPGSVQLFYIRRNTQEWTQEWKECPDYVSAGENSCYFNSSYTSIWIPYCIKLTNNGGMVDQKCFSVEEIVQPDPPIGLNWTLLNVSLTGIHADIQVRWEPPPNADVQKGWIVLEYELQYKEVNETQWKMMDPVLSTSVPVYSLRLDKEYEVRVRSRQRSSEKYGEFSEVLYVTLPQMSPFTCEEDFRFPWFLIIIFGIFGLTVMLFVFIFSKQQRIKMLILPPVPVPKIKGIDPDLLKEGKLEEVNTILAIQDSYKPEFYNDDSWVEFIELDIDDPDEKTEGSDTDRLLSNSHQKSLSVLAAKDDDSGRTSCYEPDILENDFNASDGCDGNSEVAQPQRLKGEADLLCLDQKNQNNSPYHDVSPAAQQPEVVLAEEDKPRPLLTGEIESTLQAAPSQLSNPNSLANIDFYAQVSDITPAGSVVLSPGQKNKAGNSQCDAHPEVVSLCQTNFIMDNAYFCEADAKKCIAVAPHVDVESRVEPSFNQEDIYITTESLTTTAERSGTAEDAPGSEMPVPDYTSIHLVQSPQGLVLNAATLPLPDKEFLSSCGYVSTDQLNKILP
Test: cell-based or functional assay

## PEG-S144C hGH (mono-PEGylated S144C) (from UniProt P01241 27-217) (ligand)
  EC50, individual experiment, cell proliferation assay (Example 1): 40 ng/mL and 45 ng/mL
  mean EC50 (molar form), cell proliferation assay (Example 1): 2 nM

## PEG-T3C hGH (mono-PEGylated T3C monomer) (from UniProt P01241 27-217) (ligand)
  mean EC50 (molar form), cell proliferation assay (Example 1): 0.07 nM

## hGH cysteine mutein S144C (from UniProt P01241 27-217) (ligand)
  EC50, individual experiment (second value), proliferation of FDC-P1 cells expressing the rabbit GH receptor: 1.1 ng/mL
  Mean EC50, proliferation of FDC-P1 cells expressing the rabbit GH receptor (GH-R4), MTS: 1.6 ng/mL

## hGH cysteine mutein T3C, disulfide-linked homodimer (from UniProt P01241 27-217) (ligand)
  Mean EC50, proliferation of FDC-P1 cells expressing the rabbit GH receptor (GH-R4), MTS: 1.4 ng/mL

## hGH cysteine mutein T148C (from UniProt P01241 27-217) (ligand)
  EC50, individual experiment (T148C-lotA), proliferation of FDC-P1 cells expressing the rabbit GH receptor: 0.4 ng/mL and 0.5 ng/mL
  EC50, individual experiment (T148C-lotB), proliferation of FDC-P1 cells expressing the rabbit GH receptor: 1.5 ng/mL and 1.9 ng/mL and 3.1 ng/mL
  Mean EC50 (T148C-lotA), proliferation of FDC-P1 cells expressing the rabbit GH receptor (GH-R4), MTS: 0.5 ng/mL
  Mean EC50 (T148C-lotB), proliferation of FDC-P1 cells expressing the rabbit GH receptor (GH-R4), MTS: 2.5 ng/mL

## wild-type recombinant human growth hormone (rhGH) secreted to the E. coli periplasm from stII-hGH (from UniProt P01241 27-217) (ligand)
  EC50, individual experiment, proliferation of FDC-P1 cells expressing the rabbit GH receptor: 0.8 ng/mL and 1.1 ng/mL
  Mean EC50, proliferation of FDC-P1 cells expressing the rabbit GH receptor (GH-R4), MTS: 0.8 ng/mL
